T1: recombinant human HGFA (Homo sapiens, UniProt Q04756)
T1 construct: purchased R&D Systems
T1 sequence (Q04756 408-655 limits assumed): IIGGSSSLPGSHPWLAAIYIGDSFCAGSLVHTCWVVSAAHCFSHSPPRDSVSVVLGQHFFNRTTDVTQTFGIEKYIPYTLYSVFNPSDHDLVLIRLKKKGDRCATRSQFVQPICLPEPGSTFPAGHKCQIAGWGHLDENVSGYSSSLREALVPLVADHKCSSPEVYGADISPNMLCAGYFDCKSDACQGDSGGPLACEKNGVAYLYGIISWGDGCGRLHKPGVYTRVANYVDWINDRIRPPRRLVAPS
T1 sequence (Q04756 373-407 partner limits assumed): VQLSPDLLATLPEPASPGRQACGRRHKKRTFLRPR


Key:
[1] = system: DiFi cells; test: DiFi cells co-cultured with WI38 fibroblasts, immunoblotting; type: cell-based; conditions: gefitinib 0.5 μM
Protocol: Figure 7 Fibroblasts protect DiFi cells from EGFRi in an HGF-dependent manner DiFi cells were treated with gefitinib (0.5 μM) alone or were co-cultured with WI38 fibroblasts (FIB) in the absence or the presence of SRI 31215 (10 μM) or JNJ38877605 (1 μM). The DiFi cell lysates were isolated after 4 or 24 hours as indicated and examined for the expression of pERK and total ERK, pEGFR and total EGFR, cleaved PARP, β-catenin gelsolin and β-actin by immunoblotting.
Immunoblotting was performed using standard procedures. Membranes were blocked with 5% non-fat milk for 1 hour at RT, and incubated with primary antibodies overnight at 4°C. Primary antibodies used were anti-HGF (R&D Systems), anti-MET, anti-p-MET, anti-p-GAB1, anti-p-AKT, anti-p-ERK1/2, anti-vimentin (Cell Signaling Technology), anti-p-STAT3 (Upstate Cell Signaling Solutions), anti-E-cadherin (BD Transduction Laboratories), anti-β-actin (Sigma). Following washing with TBS-T buffer, membranes were incubated with horseradish peroxidase-conjugated secondary antibodies for 1 hour and then washed with TBS-T. Immunoblots were developed using the chemiluminescent detection system with ECL (Amersham). Protein loading was normalized by probing blots for the expression of β-actin.

[2] = system: RKO cells; test: Clonogenic growth and viability of HGF-producing RKO cells with EGFR inhibitors; type: cell-based; conditions: RKO cells, SRI 31215 10 μM, JNJ 38877605 1 μM, HAI-1 20 nM
Protocol: Figure 5 Inhibitors of HGF/MET signaling prevent the innate and acquired resistance to cetuximab A. and B. RKO cells were treated with cetuximab (50 μg/ml) (A) of gefitinib (B) alone, or in combination with SRI 31215 (10 μM), JNJ 38877605 (1 μM) or recombinant HAI-1 (20 nM) as indicated and clonogenic growth was monitored as described in Materials and Methods. C. and D. Caco2 cells were treated with cetuximab or gefitinib alone or in the presence of CM from fibroblasts and SRI 31215 (10 μM) or JNJ 38877605 (1 μM) as indicated. #: p<0.05, compared to control (CTRL); NS: not significant.
Cell titer-glo luminescent cell viability assay kit was purchased from Promega. […] For clonogenic assay, cells were seeded in 6-well plates at a density of 400 cells per well, serum starved overnight, and treated as indicated. After colony formation (8-12 days), cells were stained with crystal violet and the number of colonies was determined using ImageQuantTL (GE Health Care Life Sciences).
Supplementary Figure S3: Inhibition of HGF/MET signaling sensitizes HGF-producing RKO colon cancer cells to gefitinib. A. RKO cells (HGF+) and B. HT29 (HGF-) cells were treated with gefitinib (5 μM) in the absence or the presence of SRI 31215 (10 μM) or JNJ 38877605 (1 μM) as indicated and viability was determined 24 and 72 hours after treatment. # indicates statistical significance compared to samples treated with gefitinib alone as determined by Students’ t-test (p<0.05).
(also on this page, place not known: www.impactjournals.com/oncotarget/ Oncotarget, Materials 2016 Supplementary (HGF +) (HGF -)) […]

[3] = biological target: T1, recombinant human HGFA; test: Proteolytic activation of pro-HGF by HGFA (immunoblotting); type: biochemical; conditions: SRI 31215 10 μM, HAI-1 20 nM, HGFA 1 nM
Protocol: Recombinant human HAI-1, recombinant human HGFA, and recombinant human HGF propeptide (pro-HGF) were purchased from R&D Systems. SRI 31215 (10 μM) or recombinant human HAI-1 (20 nM) were mixed with activated recombinant human HGFA pro-peptide (1nM) in TNC buffer (pH 8.0) and incubated at room temperature for 30 minutes. Recombinant human pro-HGF (40 ng) was added and incubated at 37°C for 1 hour. The reaction was stopped by SDS-PAGE gel sample buffer and samples were boiled and separated by 12% PAGE. Proteins were transferred onto nitrocellulose membrane, blocked with 5% milk and immunoblotted using antibodies that recognize pro-HGF as well as α and β chains of activated HGF.

Row | Molecule | levels of β-catenin [1] | clonogenic growth, agent alone [2] | clonogenic growth, combination with cetuximab ([2]; cetuximab 50 μg/ml) | HGFA-induced cleavage of pro-HGF into alpha and beta chains [3]
1 | COc1cc2ncnc(Nc3ccc(F)c(Cl)c3)c2cc1OCCCN1CCOCC1 [Gefitinib] | reduced |  |  | 
2 | HAI-1: recombinant human HAI-1, endogenous inhibitor of HGF activation, positive control (protein, UniProt O43278 36-529, looked up) Kunitz-type protease …: GPPPAPPGLPAGADCLNSFTAGVPGFVLDTNASVSNGATFLESPTVRRGWDCVRACCTTQNCNLALVELQPDRGEDAIAACFLINCLYEQNFVCKFAPREGFINYLTREVYRSYRQLRTQGFGGSGIPKAWAGIDLKVQPQEPLVLKDVENTDWRLLRGDTDVRVERKDPNQVELWGLKEGTYLFQLTVTSSDHPEDTANVTVTVLSTKQTEDYCLASNKVGRCRGSFPRWYYDPTEQICKSFVYGGCLGNKNNYLREEECILACRGVQGGPLRGSSGAQATFPQGPSMERRHPVCSGTCQPTQFRCSNGCCIDSFLECDDTPNCPDASDEAACEKYTSGFDELQRIHFPSDKGHCVDLPDTGLCKESIPRWYYNPFSEHCARFTYGGCYGNKNNFEEEQQCLESCRGISKKDVFGLRREIPIPSTGSVEMAVAVFLVICIVVVVAILGYCFFKNQRKDFHGHHHHPPPTPASSTVSTTEDTEHLVYNHTTRPL |  | did not impact | significant decrease | inhibited

— article PMC5045412, “Inhibition of pro-HGF activation by SRI31215, a novel approach to block oncogenic HGF/MET signaling” (Oncotarget, 2016)
